What was measured:
[1] = molecular target: T1, hD1D2-CaM (human, UniProt Q9HCN6 21-205; P0DP23 2-149, limits assumed); assay: resonant mirror biosensor, Cell 1
T1 construct: Residues are counted on mature GPVI, not on the precursor; also called rGPVI; recombinant GPVI

[2] = molecular target: T1, hD1D2-CaM; assay: resonant mirror biosensor, from response ratio against ratio of molecular masses
[3] = molecular target: T2, mD1D2-CaM (murine, UniProt P0C191 22-206; P0DP23 2-149, limits assumed); assay: capture ELISA, purified scFv
T2 construct: Residues counted from Q1 (mature protein); also called murine D1D2; mouse D1D2-CaM

[4] = molecular target: T3, hD1-CaM (human, UniProt Q9HCN6 21-109; P0DP23 2-149, limits assumed); assay: screening ELISA
T3 construct: Residues counted on mature GPVI; also called isolated hD1

ratio of responses 10B12: D1D2-CaM [1] | binding ratio (scFv to hD1D2) [2] | binding result [3] | ratio of responses 1C3: D1D2-CaM [1] | binding result [4] | Binder
0.61 | 1 | no binding (tested: 10 µg/ml) | – | – | scFv 10B12 (scFv, V domains shown, Human scFv from the CaT (Vaughan) library; also called 10B12 scFv) VH: EVQLVQSGGGVVQPGGSLRLSCAASGFTFSSYGMHWVRQAPGKGLEWVAFIRYDGSNKYYADSVKGRFTISRDNSKNTLYLQMNSLRAEDTAVYYCTDGWAEMATTDDAFDIWGRGTMVTV VL: DIQMTQSPSTLSASIGDRVTITCRASEGIYHWLAWYQQKPGKAPKLLIYKASSLASGAPSRFSGSGSGTDFTLTISSLQPDDFATYYCQQYSNYPLTFGGGTKLEIK
– | 1 | – | 0.63 | no binding | scFv 1C3 (scFv, V domains shown, Human scFv from the Marks library; also called 1C3 scFv) VH: QVQLQQSGAEVKKPGESLKISCQASGYSFSSYWIAWVRQMPGKGLELMGIIYPGDSDARYSPSFQGQVTFSADKSINTAYLQWSSLKASDTAMYYCARQGKTGSYYFGAFDVWGQGTMVTVSS VL: QSVLTQPPSMSAAPGQKVTISCTGTSSDVGGYNYVSWYQQHPGKAPKLMLFEVSHRPSGVSNRFSGSKSDNTASLTISGLQAEDEADYYCSSYTGSSTWVFGGGTKVTVL
